Laboratory results as given in the DeepSol protein solubility set.

Assay: soluble on expression in E. coli; label from the status in PepcDB or PDB records

Sequence	soluble on expression in E. coli
MSRPRKRLAGTSGSDKGLSGKRTKTENSGEALAKVEDSNPQKTSATKNCLKNLSSHWLMKSEPESRLEKGVDVKFSIEDLKAQPKQTTCWDGVRNYQARNFLRAMKLGEEAFFYHSNCKEPGIAGLMKIVKEAYPDHTQFEKNNPHYDPSSKEDNPKWSMVDVQFVRMMKRFIPLAELKSYHQAHKATGGPLKNMVLFTRQRLSIQPLTQEEFDFVLSLEEKGPSLEHHHHHH	not soluble
MSRRRHSDENDGGQPHKRRKTSDANETEDHLESLICKVGEKSACSLESNLEGLAGVLEADLPNYKSKILRLLCTVARLLPEKLTIYTTLVGLLNARNYNFGGEFVEAMIRQLKESLKANNYNEAVYLVRFLSDLVNCHVIAAPSMVAMFENFVSVTQEEDVPQVRRDWYVYAFLSSLPWVGKELYEKKDAEMDRIFANTESYLKRRQKTHVPMLQVWTADKPHPQEEYLDCLWAQIQKLKKDRWQERHILRPYLAFDSILCEALQHNLPPFTPPPHTEDSVYPMPRVIFRMFDYTDDPEGPVMPGSHSVERFVIEENLHCIIKSHWKERKTCAAQLVSYPGKNKIPLNYHIVEVIFAELFQLPAPPHIDVMYTTLLIELCKLQPGSLPQVLAQATEMLYMRLDTMNTTCVDRFINWFSHHLSNFQFRWSWEDWSDCLSQDPESPKPKFVREVLEKCMRLSYHQRILDIVPPTFSALCPANPTCIYKYGDESSNSLPGHSVALCLAVAFKSKATNDEIFSILKDVPNPNQDDDDDEGFSFNPLKIEVFVQTLLHLAAKSFSHSFSALAKFHEVFKTLAESDEGKLHVLRVMFEVWRNHPQMIAVLVDKMIRTQIVDCAAVANWIFSSELSRDFTRLFVWEILHSTIRKMNKHVLKIQKELEEAKEKLARQHKRRSDDDDRSSDRKDGVLEEQIERLQEKVESAQSEQKNLFLVIFQRFIMILTEHLVRCETDGTSVLTPWYKNCIERLQQIFLQHHQIIQQYMVTLENLLFTAELDPHILAVFQQFCALQA	soluble
MSRSRSAAASSSQKPDDMDLMSPDGSASSPSAPNTPATNSGGFSSDRKKATHLRCERQRREAINSGYSDLKDLIPQTTTSLGCKTTNAAILFRACDFMSQLKTDISDADKQLAQLNAQAAALEMIASEYEQMASSVPDAGQSTIQVKMLQLLLDDCFTSFSSQVDFTTYATITRTLLSWVESLAPNAEPFKSTAGKMVTMPFTSP	not soluble
MSRTIMLIPISAGVGLTSVSMGLLRAMERKGVSVSFYKPIAQPRTGDDQPDLTSTVMSRNSDIKIGQPMSMSAAETLIGSEKMDVLLETVVERYNQINKDAEVTLIEGLVPTRKHPFANQVNAEIANTLGAEIVFVATPGTDNPTQLKERIEVACSNFGGTKNKSISGVIINKLNAPVDEAGRTRPDLSEIFDDADHAKQANLEVMQIFNTSPIRVLGCVPWSIDLIATRAIDMAKHLKAE	not soluble
MSSAFLADRRLIRVSGTGAEEFLNNLITADIENLPEGETRASALLTPQGKILFDFLIWRDGRDYLVETGAAEQDALLRRLTMYKLRAPVELKAETVEGIGVFWGNSVTEAGVRDGRFAKAGVDLRRVPGASASGEAAAYEALRVEHGIAESGRDYALQDAFPHDVLMDVNDGVSFKKGCFVGQEVVSRMKHRGTARRRVVTVSADGTLPASGTEITANGKPVGALGTVYGNRALAIVRTDRVADALAAGTPLLADNVAVSVALPAWSGLSFPAADPAARAED	not soluble
MSSDANSDDPFSKPIVRKRFQATLAQQGIEDDQLPSVRSSDSPDVPDTPDVPVNQLSSPPLSLPETLSEGNAETNLSDDSEPEMLSQSSTSSLNRRMEDSAIDPSRGTRKSQSRGFDYDPAGERTTAPVQKKKKDEIDMGGAKFFPKQEKKHVYTHKWTTEEDDEDEKTISSSSNRYSSRPNQPAVSARPRQPVYATTSTYSKPLASGYGSRVRHIKEANELRESGEYDDFKQDLVYILSSLQSSDASMKVKCLSAISLAKKCVSPDFRQFIKSENMTKSIVKALMDSPEDDLFALAASTVLYLLTRDFNSIKIDFPSLRLVSQLLRIEKFEQRPEDKDKVVNMVWEVFNSYIEKQEVGGQKVSFDMRKESLTPSSLIIEALVFICSRSVNDDNLKSELLNLGILQFVVAKIETNVNLIADNADDTYSILILNRCFRILESSSVFHKKNQAFLISHRSNILISSLAKFLQVILDRVHQLAEEEVKKYISCLALMCRLLINISHDNELCCSKLGQIEGFLPNAITTFTYLAPKFGKENSYDINVMMTSLLTNLVERCNANRKVLIAQTVKMVIPGHDVEEVPALEAITRLFVYHESQAQIVDADLDRELAFDEGGCGDEEEEEEGGDESSDEDGVRKDGRLDRNKMDRMDQVDVVHALQQVMNKASAHMEGSVIASYHALLVGFVLQQNEDHLDEVRKHLPGKNFQNMISQLKRLYDFTKATMAKRVESNSGFRAIERVIEYLERLE	not soluble
MSSEEDKSVEQPQPPPPPPEEPGAPAPSPAAADKRPRGRPRKDGASPFQRARKKPRSRGKTAVEDEDSMDGLETTETETIVETAEIKEQSAEEDAEAEVDNSKQLIPTLQRSVSEESANSLVSVGVEAKISEQLCAFCYCGEKSSLGQGDLKQFRITPGFILPWRNQPSNKKDIDDNSNGTYEKMQNSAPRKQRGQRKERSPQQNIVSCVSVSTQTASDDQAGKLWDELSLVGLPDAIDIQALFDSTGTCWAHHRCVEWSLGVCQMEEPLLVNVDKAVVSGSTERCAFCKHLGATIKCCEEKCTQMYHYPCAAGAGTFQDFSHIFLLCPEHIDQAPERSKEDANCAVCDSPGDLLDQFFCTTCGQHYHGMCLDIAVTPLKRAGWQCPECKVCQNCKQSGEDSKMLVCDTCDKGYHTFCLQPVMKSVPTNGWKCKNCRICIECGTRSSSQWHHNCLICDNCYQQQDNLCPFCGKCYHPELQKDMLHCNMCKR	not soluble
MSSENAQLKKDLIKAVLSPLFPTATEGGENMDSNLKALLDAAIDQKVDESETVTAESILDPSLPARWIFARITPGTTISIVTDSGDMIGPVVFVAFDQVHGIVFVTQESSVTPAGQATTLIDVDKVESVTFFSLEHHHHHH	soluble
MSSERQLAGRIVVPGEPLPEEVEASPPYVIDYKGVKRATVVGLLREKGDGGGRAFVKLKEIYVPQAGDVVIGLIQSVGIMNWFVDINSPYVAVLSVQDFLGRPFNPAVDDMQSLLKVGDYIKAKVVAFDKTRSPLLTVQGEGLGRIVRGKIVEISPAKVPRVIGRKMSMLKTLEEKTECKIFVARNGRIHLECPNEDLEAIAVMAIKIIDEEAYTSGLTKRIIKFIEEERRIREV	soluble
MSSFVLDFQEIEKTQLSLVGGKGLNLGALSNMQGIQVPEGFCVTTAGYEKAIEQNEELQALLQQLTKLKREERVRIGEISKKIRENIMAVQIPSDVVEAVAHYLSRFGNEHAYAVRSSATAEDLPYASFAGQQDTYLNIIGENAILQHVRKCWASLFTDRAVMYRMQNGFEHNQVSICVVVQKMVFPQASGILFTADPITSNRKVLSIDASFGLGEALVSGLVSADNYKVKEGEIIDKMIATKKLAIYALKEGGTETKQNDPVQQKIQTLSDQQILQLVQIGRQIEAYFGCPQDIEWCLVDHTFYIVQSRPITTLYPIPEENDEGNHVYISVGHQQMMTDAMKPLGLSFFLLTTNAPMRKAGGRLFVDATQQLVLPASRDYLINTLGKSDPLVRDALTTIIERDDFITLLPDEEKEKSASKSKPPVSSQPEIENDPAIVTELIRNSEASLEELKQNMQLKSGVDVFDFILEDIQQLKKVLFNPQSIAVIMAGMNASTWINEKMEQWLGEKNAADMLSQSVQNNITSEMGLALMDVADAIRPYPEVITYLQHVEDDSFLDELVQYKGGEKARDTIVAFLNKYGMRCSGEIDITKTRWSEKPTTIIPMILNNIRDFEAGASKQKFEKGLQEALNKEEELLDRLQHLPKGKQKVEETKRMIRNIRNFIGYREYPKYGMINRYFIYKQALLKEAEQLVQSGVICEVDDIYYLTFEELHEVVRTNKLDYELIQKQKNDYKLYEKLTPPRVMTSDGEIITGKYKRENLPADAIVGLPVSSGVVEGRARVILNMEEANLEEGDILVTAFTDPGWTPLFVSIKGLVTEVGGLMTHGAVIAREYGLPAVVGVENATKRIKDGQRIRVHGTEGYIEML	not soluble
MSSGSSNFLLVPIPEYPVLDCVPNKNVKIVVLGASNVGKTALIVRFLTKRFIGDYEANTGALYSRKINLDGEQVSLQVQDTPCVSLQDDADGLYCQEQINRSITGRTVMCSSSPSLTSTATAPSSLSTNMCAESTPAVTSLSSSWETRATFCEPDRSQIPKGRRWRMNWEGYTLRLRPGRTTRASRQLFCTYVRR	not soluble
MSSHFVDWLIAHGYEQDAFDRPDVGPAGSFGGKTRSGDPVEKEPVIFIHGSGDTALFTQQPLATGFSRSIQYFLEQNYTEAELYATTWGDTWGSGSMLDTYSTIHTCGNLIYLRRFLEAVIGYTGAKKVDIIAHSVGVPLMRKVVKGGTLIGTDGNCTLGPPLGAKVDTFLGIAGPNFGLCVCQLAQTVPAWCNALDGLYPGYTCQDQLWCGYTSGSCKQENYSNLLQKTNDDPNREGDHVYAMWSDVDEVLLNRGMVWGKPTARIPGMNGRWISDRNGHVAMKDLTELRQFEAIVHHSI	not soluble
MSSIGTGYDLAASTFSPDGRIFQVEYAQKAVDNAGTMIAIRGKNGVVVVADKLISSKLYTDNANPRMFNVNDNVGVAVAGNYPDGFALKNYAYGEAMKWLKDYREPMPIQNIANSVAEYIHIHTLGISRPFGAGAFFMSWNKQTGGRLFLVEPSGLNYEYKAWAVGKHRQAAKAEIEKLKIEELDVNQLVKEAARIIMVVRDENKDKNVQIEMGWVGEQTNGKYEEVPSEVVTAAEEWAIAKLDEDDMDD	not soluble
MSSKNTAEVILGGKVIKLGGYESEEYLQRVASYINNKITEFNKEESYRRMSAELRTDMMYLNIADDYFKAKKMADSLSLDIENKDKEIYDLKHELIAAQIKAESSAKEIKELKSEINKYQKNIVKLETELNDSKK	soluble
MSSLARGISRRRTEVATQVEAAPTGLRPNAVVGVRLAALADQVGAALAEGPAQRAVTEDRTVTGVTLRAQDVSPGDLFAALTGSTTHGARHVGDAIARGAVAVLTDPAGVAEIAGRAAVPVLVHPAPRGVLGGLAATVYGHPSERLTVIGITGTSGKTTTTYLVEAGLRAAGRVAGLIGTIGIRVGGADLPSALTTPEAPTLQAMLAAMVERGVDTVVMEVSSHALALGRVDGTRFAVGAFTNLSRDHLDFHPSMADYFEAKASLFDPDSALRARTAVVCIDDDAGRAMAARAADAITVSAADRPAHWRATDVAPTDAGGQQFTAIDPAGVGHHIGIRLPGRYNVANCLVALAILDTVGVSPEQAVPGLREIRVPGRLEQIDRGQGFLALVDYAHKPEALRSVLTTLAHPDRRLAVVFGAGGDRDPGKRAPMGRIAAQLADLVVVTDDNPRDEDPTAIRREILAGAAEVGGDAQVVEIADRRDAIRHAVAWARPGDVVLIAGKGHETGQRGGGRVRPFDDRVELAAALEALERRA	soluble
MSSNAQAIAGLEDRSAIPPTALKATLDHRLGEAAPSDYAKTLLASADAPTLRHLLGLGDAAVMDTGSGKNLDADLLDGYHGTYYLQWRNLQNTPQTYPPSAHQHASSDIPELASQLDTLVKKTGSLMTGSLQSQGTLIGDALGNGRIPALKIGNDCEFWDNNIPYAATFRSGTSPAIAQLFFGTSNHCYFGTSTKNTSTVIGAKTGLLWIETAGNYYYQQHDTTHVAFYKKNGGHAFFWRRSDSGGSGSTNEVQLMALEDNGNLSVKGTIVSAGGYAQGSSRKLKDIEGPLPYGLAEIEQLTPLIGRYKPSYTPDGRRRLFLEAEQLLDLMPETVNPEGIPFQGAYVPSVNLDQLLPVLVNAIAQLSAKVNALTDAPRHAEKLEHHHHHH	not soluble
